Measurements reported in patent publication US6855815 (Amgen, dated 2005).

Key:
[1] = target: T1, human cellular inhibitor of apoptosis protein 1 (c-IAP1) (human, UniProt Q13490 1-618); experiment: yeast two-hybrid
T1 construct: Tested in a yeast two-hybrid system; also called h c-IAP1
Description: (§1) A yeast two-hybrid system was used to determine how c-IAP1 and -2 interact with TNF-R2 and/or TRAFs. The following results were obtained indistinguishably for c-IAP1 and c-IAP2. […] However, a direct interaction could be detected between c-IAP1 and TRAF2. […] Consistently, c-IAP1 also interacted with TRAF1. […] Thus c-IAP1 and TNF-R2 bind to non-overlapping docking sites within the TRAF domain of TRAF2. […] Similarly, combinations of two of the three BIR motifs e.g. amino acid residues 46–99 and 204–249 of c-IAP1 and 29–82 and 189–234 of c-IAP2, separated by IAP1 derived intervening sequences of varying lengths are assayed for TRAF1 and TRAF2 binding. […] The RING finger domain of c-IAP1/2 (amino acids 571–618 of c-IAP1 and 557–604 of c-IAP2) is not required for interaction with TRAFs, but rather mediates subsequent steps in the c-IAP1/2 signaling cascade. Similarly, a variety of c-IAP1 derived N-terminal leader sequences fused to the c-IAP1 RING finger domain are used to assay signal transduction mediation.

[2] = target: T2, human cellular inhibitor of apoptosis protein 2 (c-IAP2) (human, UniProt Q13489 1-604); experiment: yeast two-hybrid
T2 construct: The two-hybrid fusion partners are not described; also called h c-IAP2
Description: as §1

[3] = target: T3, c-IAP1 N-terminally tagged with a FLAG epitope peptide (Homo sapiens (Human), UniProt Q13490 1-618); experiment: co-immunoprecipitation from transfected 293 cells (anti-TNF-R2 IP, anti-FLAG Western)
T3 construct: Expressed in human embryonic 293 cells from a pRK vector (CMV promoter); also called FLAG-tagged c-IAP1
Method: A transfection based co-immunoprecipitation assay was used to investigate how c-IAP1 interacts with the complex of TNF-R2 and TRAFs. In this system c-IAP1 was N-terminally tagged with a FLAG epitope peptide and expressed in human embryonic 293 cells under the control of a constitutive CMV promotor (pRK vector). The c-IAP1 expression vector was transiently co-transfected into 293 cells with expression vectors for TNF-R2 and TRAFs. After 24–36 h, the cells were harvested and extracts immunoprecipitated with anti-TNF-R2 antibodies, followed by Western analysis with anti-FLAG antibodies. […] Thus, c-IAP1 is a component of the TNF-R2 (CD40)/TRAF signaling complex.

Measured: binding result

T1 sequence (Q13490 whole entry): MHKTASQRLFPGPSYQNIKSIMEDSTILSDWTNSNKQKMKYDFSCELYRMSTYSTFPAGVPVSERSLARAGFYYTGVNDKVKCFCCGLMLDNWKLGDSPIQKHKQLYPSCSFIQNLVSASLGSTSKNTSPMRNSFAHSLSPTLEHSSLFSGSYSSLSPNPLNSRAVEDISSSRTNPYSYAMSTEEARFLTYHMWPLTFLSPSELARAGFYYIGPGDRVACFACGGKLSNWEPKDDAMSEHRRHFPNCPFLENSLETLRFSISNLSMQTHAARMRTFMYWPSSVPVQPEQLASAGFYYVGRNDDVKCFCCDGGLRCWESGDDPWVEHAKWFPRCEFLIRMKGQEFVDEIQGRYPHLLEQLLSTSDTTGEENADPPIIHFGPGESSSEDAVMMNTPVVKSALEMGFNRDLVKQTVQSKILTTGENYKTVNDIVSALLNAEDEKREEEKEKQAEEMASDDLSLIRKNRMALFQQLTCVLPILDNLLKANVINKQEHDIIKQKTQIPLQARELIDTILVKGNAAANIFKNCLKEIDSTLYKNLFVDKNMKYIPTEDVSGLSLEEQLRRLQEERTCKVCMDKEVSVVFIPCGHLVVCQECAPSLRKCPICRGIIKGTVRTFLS
T3 sequence (Q13490 whole entry): as above
T2 sequence (Q13489 whole entry, the tested form may be a part): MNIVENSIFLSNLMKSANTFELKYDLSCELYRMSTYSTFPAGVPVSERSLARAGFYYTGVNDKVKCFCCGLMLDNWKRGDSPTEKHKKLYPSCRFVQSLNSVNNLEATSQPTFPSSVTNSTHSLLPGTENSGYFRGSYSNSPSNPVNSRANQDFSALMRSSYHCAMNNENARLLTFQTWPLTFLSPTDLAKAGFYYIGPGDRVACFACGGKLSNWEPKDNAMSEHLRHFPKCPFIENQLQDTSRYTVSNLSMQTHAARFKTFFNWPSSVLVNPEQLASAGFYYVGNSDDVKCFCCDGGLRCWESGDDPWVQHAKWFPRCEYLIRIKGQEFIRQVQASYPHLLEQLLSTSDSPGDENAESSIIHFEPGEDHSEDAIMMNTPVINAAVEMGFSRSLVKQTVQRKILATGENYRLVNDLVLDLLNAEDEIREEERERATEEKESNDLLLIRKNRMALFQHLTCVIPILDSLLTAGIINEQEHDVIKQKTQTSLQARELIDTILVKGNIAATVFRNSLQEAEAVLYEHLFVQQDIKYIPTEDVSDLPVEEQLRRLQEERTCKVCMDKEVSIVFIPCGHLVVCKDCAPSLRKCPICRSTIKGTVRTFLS

B1: TNF-R2 (receptor, UniProt P20333 288-461, looked up)
chain: KKKPLCLQREAKVPHLPADKARGTQGPEQQHLLITAPSSSSSSLESSASALDRRAPTRNQPQAPGVEASGAGEARASTGSSDSSPGGHGTQVNVTCIVNVCSSSDHSSQCSSQASSTMGDTDSSPSESPKDEQVPFSKEECAFRSQLETPETLLGSTEEKPLPLGVPDAGMKPS
notes: In the co-immunoprecipitation it was expressed from a vector in 293 cells
no binding: [1] | [2] | [3]
